Results as given in publication PMC5959753 (Cell chemical biology, 2018).
Numbering of substitutions follows the chain as printed. Where two headings read alike, the source gives them in different places.

B1: Neurospora crassa C-S lyase Egt2, wild type (enzyme, UniProt A7UX13 1-473, looked up)
chain: MVATTVELPLQQKADAAQTVTGPLPFGNSLLKEFVLDPAYRNLNHGSFGTIPSAIQQKLRSYQTAAEARPCPFLRYQTPVLLDESRAAVANLLKVPVETVVFVANATMGVNTVLRNIVWSADGKDEILYFDTIYGACGKTIDYVIEDKRGIVSSRCIPLIYPAEDDDVVAAFRDAIKKSREEGKRPRLAVIDVVSSMPGVRFPFEDIVKICKEEEIISCVDGAQGIGMVDLKITETDPDFLISNCHKWLFTPRGCAVFYVPVRNQHLIRSTLPTSHGFVPQVGNRFNPLVPAGNKSAFVSNFEFVGTVDNSPFFCVKDAIKWREEVLGGEERIMEYMTKLAREGGQKVAEILGTRVLENSTGTLIRCAMVNIALPFVVGEDPKAPVKLTEKEEKDVEGLYEIPHEEANMAFKWMYNVLQDEFNTFVPMTFHRRRFWARLSAQVYLEMSDFEWAGKTLKELCERVAKGEYKESA
modifications: PLP covalently bound to K247 (internal aldimine); selenomethionine in the derivative crystals used for the final structure
B2: Neurospora crassa C-S lyase Egt2 Y134F (enzyme, UniProt A7UX13 1-473, looked up)
chain: B1 chain with Y134F
modifications: PLP covalently bound to K247 (internal aldimine)

Columns and labels:
crystal structure [1] = target: the molecule itself; test: crystal structure
crystal structure [2] = target: the molecule itself; test: crystal structure; remark: listed apart in the source

Protein | stoichiometry N (crystal structure [1]) | stoichiometry N (crystal structure [2])
B1 | 2 | –
B2 | – | 2
